The text below walks through data of patent US20080194482A1, “Selective Apac2 Receptor Peptide Agonists” (priority 2005, published 2008).

Where a chain is given by its changes, count along the chain named. In names and notes the source's numbering stands. Numbered stars: 1 amine (or outer) side, 2 acyl side, 3 side chain; on linkers, the order of the positions; unused ones are H or OH. Square brackets hold non-standard residues; d marks the D form. Ends that are not written are not given here. * marks the point of attachment. Tyr(OMe) = O-methyl-tyrosine, COc1ccc(C[C@H](N[*:1])C(=O)[*:2])cc1; Orn = NCCC[C@H](N)C(=O)O; Hexanoyl = CCCCCC(=O)*; Aib = CC(C)(N)C(=O)O

The chains are these.
T1: human VPAC2 receptor (human, UniProt P41587 24-438)
T1 sequence (looked up): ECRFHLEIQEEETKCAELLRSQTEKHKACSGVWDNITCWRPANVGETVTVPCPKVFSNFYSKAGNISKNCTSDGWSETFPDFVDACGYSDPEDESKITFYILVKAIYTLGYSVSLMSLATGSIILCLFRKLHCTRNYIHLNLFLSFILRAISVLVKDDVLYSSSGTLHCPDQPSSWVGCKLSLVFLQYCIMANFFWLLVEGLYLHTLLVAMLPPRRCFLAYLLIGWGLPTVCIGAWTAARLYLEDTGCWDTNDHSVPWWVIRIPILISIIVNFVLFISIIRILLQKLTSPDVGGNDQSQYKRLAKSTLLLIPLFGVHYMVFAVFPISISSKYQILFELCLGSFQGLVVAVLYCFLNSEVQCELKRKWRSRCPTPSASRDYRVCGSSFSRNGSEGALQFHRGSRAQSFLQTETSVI

T2: rat VPAC2 receptor (rat, UniProt P35000 23-437)
T2 sequence (looked up): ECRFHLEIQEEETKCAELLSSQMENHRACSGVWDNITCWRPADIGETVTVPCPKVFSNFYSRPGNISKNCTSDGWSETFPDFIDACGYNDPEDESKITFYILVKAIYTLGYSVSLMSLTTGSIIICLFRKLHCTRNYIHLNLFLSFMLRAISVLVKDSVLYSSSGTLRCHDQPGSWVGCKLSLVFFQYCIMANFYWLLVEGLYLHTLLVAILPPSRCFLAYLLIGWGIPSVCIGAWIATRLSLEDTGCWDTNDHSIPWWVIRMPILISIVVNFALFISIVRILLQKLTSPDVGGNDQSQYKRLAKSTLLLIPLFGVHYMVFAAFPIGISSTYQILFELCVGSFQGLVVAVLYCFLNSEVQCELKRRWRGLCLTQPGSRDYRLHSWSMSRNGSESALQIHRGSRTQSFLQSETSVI

T3: rat VPAC1 receptor (rat, UniProt P30083 31-459)
T3 sequence (looked up): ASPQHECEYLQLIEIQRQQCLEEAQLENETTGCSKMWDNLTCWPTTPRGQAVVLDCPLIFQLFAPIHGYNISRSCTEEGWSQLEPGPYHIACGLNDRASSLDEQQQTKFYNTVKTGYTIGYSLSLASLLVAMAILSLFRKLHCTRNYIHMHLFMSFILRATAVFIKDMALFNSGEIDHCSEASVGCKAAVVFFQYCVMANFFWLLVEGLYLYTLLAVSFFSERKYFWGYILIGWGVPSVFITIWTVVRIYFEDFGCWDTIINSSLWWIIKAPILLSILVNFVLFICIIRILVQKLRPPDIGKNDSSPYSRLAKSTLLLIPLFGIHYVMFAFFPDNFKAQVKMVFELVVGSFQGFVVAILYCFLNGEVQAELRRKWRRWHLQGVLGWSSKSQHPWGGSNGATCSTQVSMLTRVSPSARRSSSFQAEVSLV

B1: VPAC2 receptor peptide agonist P371 (peptide)
peptide: Hexanoyl-HSDAVFTDNYT[Orn]LLAKLALQKYLQSI[Orn]N[Orn]GGPSSGAPPPS
B2: VPAC2 receptor peptide agonist P343 (peptide)
peptide: HSDAVFTDNYTXLRXQVAAXKYLQSIKNKRYGGPSSGAPPPS
modifications: N-terminal hexanoyl (C6); hR (homoarginine) at 12; Aib at 15 and 20
B3: VPAC2 receptor peptide agonist P406 (peptide)
peptide: Hexanoyl-HSDAVFTDQYTR[Aib]R[Aib]QVAA[Aib]KYLQSIK[Aib]KGGPSSGAPPPS
B4: VPAC2 receptor peptide agonist P408 (peptide)
peptide: Hexanoyl-HSDAVFTDQ[Tyr(OMe)]TR[Aib]R[Aib]QLAA[Aib]KYLQSIK[Aib]KGGPSSGAPPPS
B5: VPAC2 receptor peptide agonist P357 (peptide)
peptide: HSDAVFTDNYTRLRXQVAAXKYLQSIKXXGGPSSGAPPPS
modifications: N-terminal hexanoyl (C6); Aib at 15, 20 and 28; Orn at 29
B6: VPAC2 receptor peptide agonist P367 (peptide)
peptide: Hexanoyl-HSDAVFTDNYTLLR[Aib]QVAA[Aib]KYLQSI[Orn]N[Orn]GGPSSGAPPPS
B7: VPAC2 receptor peptide agonist P418 (peptide)
peptide: HSDAVFTEQYTXLRXQLAAXXYLQSIXXGGPSSGAPPPS
modifications: N-terminal hexanoyl (C6); Tyr(OMe) at 10 and 22; Orn at 12, 21, 27 and 28; Aib at 15 and 20
B8: VPAC2 receptor peptide agonist P397 (peptide)
peptide: B7 peptide with E8D, Q9N, L17V
modifications: N-terminal hexanoyl (C6); Orn at 12, 21, 27 and 28; Aib at 15 and 20
B9: VPAC2 receptor peptide agonist P393 (peptide)
peptide: B7 peptide with D3E
modifications: N-terminal hexanoyl (C6); Tyr(OMe) at 10; Orn at 12, 21, 27 and 28; Aib at 15 and 20
B10: VPAC2 receptor peptide agonist P392 (peptide)
peptide: Hexanoyl-HSDAVFTDSYT[Orn]LR[Aib]QVAA[Aib]KYLQSI[Orn]N[Orn]GGPSSGAPPPS

The first test concerns the target T1, human VPAC2 receptor. Kind of test: cell-based or functional assay.
B1: the “Human VPAC2 Receptor: Alpha Screen (EC50; nM), cAMP generation” value (“Human VPAC2 Receptor: Alpha Screen” for short) was 0.13 nM.
For the molecule B2, the “Human VPAC2 Receptor: Alpha Screen” value turned out to be 0.29 nM.
Consider B3, for which the “Human VPAC2 Receptor: Alpha Screen” value was determined as 0.12 nM.
Turning to B4, the “Human VPAC2 Receptor: Alpha Screen” value worked out at 0.12 nM.
The same measure, in the same setting: for B5 the value was 0.23 nM; for B6, 6.5 nM.
B7: the “Human VPAC2 Receptor: Alpha Screen” value worked out at 3.11 nM.
Regarding B8, the “Human VPAC2 Receptor: Alpha Screen” value was 0.15 nM.
Consider B9, for which the “Human VPAC2 Receptor: Alpha Screen” value came out at 0.31 nM.
For the molecule B10, the “Human VPAC2 Receptor: Alpha Screen” value turned out to be 0.21 nM.

Another test has as its target T2, rat VPAC2 receptor. The test is described as follows: cell-based or functional assay.
As to B2, the “Rat VPAC2 Receptor: DiscoveRx (EC50; nM), cAMP generation” value (from here on “Rat VPAC2 Receptor: DiscoveRx”) was 0.15 nM.
On the same count and under the same terms, the same measure for B3: 0.04 nM; for B4: 0.04 nM; for B5: 0.07 nM.
Regarding B6, the “Rat VPAC2 Receptor: DiscoveRx” value worked out at 6.14 nM.
For the molecule B7, the “Rat VPAC2 Receptor: DiscoveRx” value turned out to be 0.57 nM.
With B9, the “Rat VPAC2 Receptor: DiscoveRx” value stood at 0.17 nM.
As to B10, the “Rat VPAC2 Receptor: DiscoveRx” value came out at 0.08 nM.

For the next test, the target named is T3, rat VPAC1 receptor. The test is described as follows: cell-based or functional assay.
As to B2, the “Rat VPAC1 Receptor: DiscoveRx (EC50; nM), cAMP generation” value (“Rat VPAC1 Receptor: DiscoveRx” below) came out at 2.62 nM.
Same read-out and setting: the same measure for B4: 0.35 nM; for B5: 0.69 nM; for B6: 75.3 nM.
Turning to B7, the “Rat VPAC1 Receptor: DiscoveRx” value was determined as 7.76 nM.
Take B9: the “Rat VPAC1 Receptor: DiscoveRx” value is 16 nM.
As to B10, the “Rat VPAC1 Receptor: DiscoveRx” value is 0.71 nM.

A further test deals with T1, human VPAC2 receptor. The test is described as follows: filter binding, human VPAC2 membranes, competition with 125I-VIP.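 Further: assay plate incubated 1 h with shaking, then filtered, with filter-retained counts measured after adding scintillant.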
Broadly, the IC50 is the concentration that inhibits the measured activity by half. A higher IC50 goes with a need for much substance. In the case of B1, the 50% inhibitory concentration (IC50) stood at 0.34 nM.
The molecule B2 gave an IC50 of 0.85 nM.
Turning to B3, the IC50 was 0.27 nM. This IC50 is about 3.1-fold lower than that of the molecule before.
B4 returned an IC50 of 0.48 nM.
On to B5, for which the IC50 was found to be 0.32 nM.
With B7, the IC50 was determined as 8.96 nM. Compared with the last molecule, the IC50 is about 28-fold higher.
Turning to B8, the IC50 was 0.5 nM.
B9: the half-maximal inhibitory concentration (IC50) was determined as 0.74 nM.
For B10, the IC50 was determined as 0.45 nM.
